The chains are these.
B1: glmS ribozyme (parent)
chain: AUAAAAGCGCCAGAACUACAGAAAUGUAGUUGACGAGGAGGAGGUUUAUCGAAUUUUCGGCGGAUGCCUCCAAA

Conditions in all cases: with glucosamine-6-phosphate
In data set [1] the parent is B1. Briefly: self-cleavage kobs at 40 uM GlcN6P; higher = faster cleavage; RNA array. The essentials: (§1)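 Sequenced MiSeq chips were the platform: E. coli RNA polymerase transcribed barcoded ribozyme variants on them in situ, and a hybridised Cy3 probe tracked these at 37 °C. After glucosamine-6-phosphate (40 μM to 10 mM) in HEPES/KCl/Mg(OAc)2 buffer was flowed in, tiles were imaged over ~14 h. Signals normalised to baseline and to non-cleaving reference variants were reduced to per-tile medians and fit to one- or two-exponential decays to obtain kobs. kcat and KM were derived through weighted Michaelis–Menten fits across concentrations.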

The variants in data set [2] derive from B1. Description: self-cleavage kobs at 160 uM GlcN6P; higher = faster cleavage; RNA array. A digest of the protocol: as §1
Data set [3] covers variants of B1. Briefly: self-cleavage kobs at 640 uM GlcN6P; higher = faster cleavage; RNA array. A digest of the protocol:
as §1

Variants of B1 are the subject of data set [4]. Briefly: self-cleavage kobs at 10000 uM GlcN6P; higher = faster cleavage; RNA array. A digest of the protocol:
as §1

Variants of B1 are the subject of data set [5]. Briefly: self-cleavage kobs at 2500 uM GlcN6P; higher = faster cleavage; RNA array. The essentials: as §1

± gives the standard error. Variants at the floor of the assay were thinned out.

In the case of U54A G63A, in the data set with glucosamine-6-phosphate [1], the “self-cleavage kobs at 40 uM GlcN6P” value is under 1e-05 s⁻¹. Further, the “self-cleavage kobs at 160 uM GlcN6P” value with glucosamine-6-phosphate [2] was under 1e-05 s⁻¹. For the same variant, the “self-cleavage kobs at 640 uM GlcN6P” value in the data set with glucosamine-6-phosphate [3] is under 1e-05 s⁻¹.

On to G35U G40A, for which the “self-cleavage kobs at 40 uM GlcN6P” value with glucosamine-6-phosphate [1] was under 1e-05 s⁻¹. For the same variant, in the data set with glucosamine-6-phosphate [2], the “self-cleavage kobs at 160 uM GlcN6P” value is under 1e-05 s⁻¹. Also, the “self-cleavage kobs at 640 uM GlcN6P” value in the data set with glucosamine-6-phosphate [3] was under 1e-05 s⁻¹. The “self-cleavage kobs at 10000 uM GlcN6P” value with glucosamine-6-phosphate [4] is under 1e-05 s⁻¹.

Take U55A U57C U69C C70U: the “self-cleavage kobs at 40 uM GlcN6P” value with glucosamine-6-phosphate [1] is under 1e-05 s⁻¹.

Consider A1C U2A A3U G7A C8G G9C C10G A12C G13A A14G, for which the “self-cleavage kobs at 40 uM GlcN6P” value in the data set with glucosamine-6-phosphate [1] turned out to be 6.43e-05 ± 1.4e-05 s⁻¹. Moreover, the “self-cleavage kobs at 10000 uM GlcN6P” value with glucosamine-6-phosphate [4] came to 0.00344 ± 0.00044 s⁻¹.

In the case of C34A G51A G63U C71U, the “self-cleavage kobs at 40 uM GlcN6P” value in the data set with glucosamine-6-phosphate [1] was under 1e-05 s⁻¹. The “self-cleavage kobs at 10000 uM GlcN6P” value with glucosamine-6-phosphate [4] is under 1e-05 s⁻¹.

In the case of C11A C58A A64G, the “self-cleavage kobs at 40 uM GlcN6P” value with glucosamine-6-phosphate [1] is under 1e-05 s⁻¹.

G7C U57A: in the data set with glucosamine-6-phosphate [1], the “self-cleavage kobs at 40 uM GlcN6P” value is under 1e-05 s⁻¹. In the data set with glucosamine-6-phosphate [2], the “self-cleavage kobs at 160 uM GlcN6P” value is under 1e-05 s⁻¹.

In the case of A14U A52C, the “self-cleavage kobs at 40 uM GlcN6P” value with glucosamine-6-phosphate [1] is under 1e-05 s⁻¹. Besides, in the data set with glucosamine-6-phosphate [2], the “self-cleavage kobs at 160 uM GlcN6P” value was under 1e-05 s⁻¹.

As to C11G C16A A48C, the “self-cleavage kobs at 40 uM GlcN6P” value with glucosamine-6-phosphate [1] was under 1e-05 s⁻¹. Further, the “self-cleavage kobs at 10000 uM GlcN6P” value in the data set with glucosamine-6-phosphate [4] is under 1e-05 s⁻¹.

As to A14C A64G U65A C70A C71G, the “self-cleavage kobs at 40 uM GlcN6P” value with glucosamine-6-phosphate [1] is under 1e-05 s⁻¹. Besides, in the data set with glucosamine-6-phosphate [4], the “self-cleavage kobs at 10000 uM GlcN6P” value was under 1e-05 s⁻¹.

Regarding G41U G51U A53G, the “self-cleavage kobs at 40 uM GlcN6P” value with glucosamine-6-phosphate [1] is under 1e-05 s⁻¹. For the same variant, in the data set with glucosamine-6-phosphate [4], the “self-cleavage kobs at 10000 uM GlcN6P” value is under 1e-05 s⁻¹.

As to C16A G44A, the “self-cleavage kobs at 40 uM GlcN6P” value with glucosamine-6-phosphate [1] was under 1e-05 s⁻¹. For the same variant, the “self-cleavage kobs at 160 uM GlcN6P” value with glucosamine-6-phosphate [2] was under 1e-05 s⁻¹.

On to C50G C68U, for which, in the data set with glucosamine-6-phosphate [1], the “self-cleavage kobs at 40 uM GlcN6P” value is 0.000168 ± 2.2e-05 s⁻¹. In addition, the “self-cleavage kobs at 160 uM GlcN6P” value with glucosamine-6-phosphate [2] was determined as 0.000233 ± 4.2e-05 s⁻¹. Also, in the data set with glucosamine-6-phosphate [3], the “self-cleavage kobs at 640 uM GlcN6P” value was 0.00021 ± 2.4e-05 s⁻¹. Moreover, the “self-cleavage kobs at 2500 uM GlcN6P” value in the data set with glucosamine-6-phosphate [5] was 0.000189 ± 2e-05 s⁻¹. The “self-cleavage kobs at 10000 uM GlcN6P” value in the data set with glucosamine-6-phosphate [4] amounted to 0.000128 ± 1.3e-05 s⁻¹.

In the case of U47G U56A C58U A64G U69A C70A, in the data set with glucosamine-6-phosphate [1], the “self-cleavage kobs at 40 uM GlcN6P” value was found to be 5.21e-05 ± 2.2e-05 s⁻¹. Besides, in the data set with glucosamine-6-phosphate [4], the “self-cleavage kobs at 10000 uM GlcN6P” value worked out at 3.66e-05 ± 1.4e-05 s⁻¹.

With A14G U45A A48U, the “self-cleavage kobs at 40 uM GlcN6P” value in the data set with glucosamine-6-phosphate [1] is 0.000108 ± 2.6e-05 s⁻¹. In the data set with glucosamine-6-phosphate [4], the “self-cleavage kobs at 10000 uM GlcN6P” value came to 0.00563 ± 0.001 s⁻¹.

G37U G40C: the “self-cleavage kobs at 40 uM GlcN6P” value with glucosamine-6-phosphate [1] was under 1e-05 s⁻¹. Further, the “self-cleavage kobs at 160 uM GlcN6P” value in the data set with glucosamine-6-phosphate [2] is under 1e-05 s⁻¹. Besides, the “self-cleavage kobs at 640 uM GlcN6P” value in the data set with glucosamine-6-phosphate [3] was under 1e-05 s⁻¹. Besides, the “self-cleavage kobs at 2500 uM GlcN6P” value with glucosamine-6-phosphate [5] is under 1e-05 s⁻¹. Besides, the “self-cleavage kobs at 10000 uM GlcN6P” value with glucosamine-6-phosphate [4] was under 1e-05 s⁻¹.

Take A15U G63U: the “self-cleavage kobs at 40 uM GlcN6P” value with glucosamine-6-phosphate [1] was under 1e-05 s⁻¹. In the data set with glucosamine-6-phosphate [2], the “self-cleavage kobs at 160 uM GlcN6P” value is under 1e-05 s⁻¹. In addition, in the data set with glucosamine-6-phosphate [3], the “self-cleavage kobs at 640 uM GlcN6P” value was under 1e-05 s⁻¹. For the same variant, the “self-cleavage kobs at 10000 uM GlcN6P” value with glucosamine-6-phosphate [4] was under 1e-05 s⁻¹.

Take A36G G41A G51C C61G C67U: the “self-cleavage kobs at 40 uM GlcN6P” value in the data set with glucosamine-6-phosphate [1] is under 1e-05 s⁻¹. The “self-cleavage kobs at 10000 uM GlcN6P” value in the data set with glucosamine-6-phosphate [4] is under 1e-05 s⁻¹.

In the case of C8A A15U U31A G41U C50U G51U G62A, the “self-cleavage kobs at 40 uM GlcN6P” value with glucosamine-6-phosphate [1] is under 1e-05 s⁻¹. In addition, the “self-cleavage kobs at 2500 uM GlcN6P” value with glucosamine-6-phosphate [5] is under 1e-05 s⁻¹. The “self-cleavage kobs at 10000 uM GlcN6P” value in the data set with glucosamine-6-phosphate [4] is under 1e-05 s⁻¹.

Turning to G40A U54G, the “self-cleavage kobs at 40 uM GlcN6P” value in the data set with glucosamine-6-phosphate [1] is 0.00036 ± 6.8e-05 s⁻¹. For the same variant, in the data set with glucosamine-6-phosphate [3], the “self-cleavage kobs at 640 uM GlcN6P” value amounted to 0.0015 ± 0.00038 s⁻¹. Besides, in the data set with glucosamine-6-phosphate [5], the “self-cleavage kobs at 2500 uM GlcN6P” value came to 0.00184 ± 0.00065 s⁻¹. In addition, in the data set with glucosamine-6-phosphate [4], the “self-cleavage kobs at 10000 uM GlcN6P” value stood at 0.00643 ± 0.0015 s⁻¹.

Turning to C16A C61U, in the data set with glucosamine-6-phosphate [1], the “self-cleavage kobs at 40 uM GlcN6P” value was under 1e-05 s⁻¹. Besides, in the data set with glucosamine-6-phosphate [2], the “self-cleavage kobs at 160 uM GlcN6P” value is under 1e-05 s⁻¹. The “self-cleavage kobs at 640 uM GlcN6P” value with glucosamine-6-phosphate [3] is under 1e-05 s⁻¹. Also, in the data set with glucosamine-6-phosphate [5], the “self-cleavage kobs at 2500 uM GlcN6P” value was under 1e-05 s⁻¹. Besides, in the data set with glucosamine-6-phosphate [4], the “self-cleavage kobs at 10000 uM GlcN6P” value was under 1e-05 s⁻¹.

Consider U54G C71U, for which, in the data set with glucosamine-6-phosphate [1], the “self-cleavage kobs at 40 uM GlcN6P” value worked out at 0.00109 ± 0.00015 s⁻¹. In addition, in the data set with glucosamine-6-phosphate [2], the “self-cleavage kobs at 160 uM GlcN6P” value was 0.00194 ± 0.00038 s⁻¹. Moreover, the “self-cleavage kobs at 640 uM GlcN6P” value in the data set with glucosamine-6-phosphate [3] was determined as 0.00857 ± 0.00098 s⁻¹. Moreover, the “self-cleavage kobs at 2500 uM GlcN6P” value in the data set with glucosamine-6-phosphate [5] was 0.0283 ± 0.0078 s⁻¹. Besides, in the data set with glucosamine-6-phosphate [4], the “self-cleavage kobs at 10000 uM GlcN6P” value came to 0.0636 ± 0.013 s⁻¹.

With A6G U46G, in the data set with glucosamine-6-phosphate [1], the “self-cleavage kobs at 40 uM GlcN6P” value was under 1e-05 s⁻¹. Besides, in the data set with glucosamine-6-phosphate [2], the “self-cleavage kobs at 160 uM GlcN6P” value was under 1e-05 s⁻¹. Moreover, the “self-cleavage kobs at 10000 uM GlcN6P” value with glucosamine-6-phosphate [4] is 7.11e-05 ± 8.7e-06 s⁻¹.

For the origin of these results see the supplement of paper PMC7125110.
